Source: paper PMC3338918

Tests used:
[1] = target: T1, human PlGF-2 (human) (UniProt P49763)
T1 sequence: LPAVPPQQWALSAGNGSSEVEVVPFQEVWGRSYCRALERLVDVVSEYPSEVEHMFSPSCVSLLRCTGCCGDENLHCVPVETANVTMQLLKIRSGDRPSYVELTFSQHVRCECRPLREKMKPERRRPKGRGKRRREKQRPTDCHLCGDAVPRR

[2] = target: T2, murine PlGF-2 (mouse) (UniProt P49764)
T2 sequence: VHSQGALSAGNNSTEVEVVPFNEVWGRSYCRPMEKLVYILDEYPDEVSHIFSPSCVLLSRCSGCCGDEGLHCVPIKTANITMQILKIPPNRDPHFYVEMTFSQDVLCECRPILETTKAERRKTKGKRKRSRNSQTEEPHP

[3] = target: human VEGF-A165 (human)
[4] = target: human VEGF-A121 (human)
[5] = target: T1, human PlGF-2 (human); remark: listed apart in the source
[6] = target: T2, murine PlGF-2 (mouse); remark: listed apart in the source
[7] = target: human VEGF-A165 (human); remark: listed apart in the source
[8] = target: human VEGFR1-hFc (human) (UniProt P17948)
[9] = target: VEGF Trap (aflibercept) (human); assay: KinExA solution equilibrium assay; KinExA 3000, room temperature (25°C); VEGF Trap (1–50 pM) equilibrated 10–96 h with varying ligand; unbound inhibitor captured on VEGF-A165-coupled Azlactone beads and detected with Cy5 anti-human IgG; one-site homogeneous binding model
[10] = target: VEGF Trap (aflibercept) (human); assay: SPR; Biacore 3000, CM5 chip, 25°C, HBS-T (10 mM Hepes, 150 mM NaCl, 3.4 mM EDTA, 0.05% polysorbate 20, pH 7.4); VEGF Trap or receptor-Fc captured at low density on amine-coupled Protein A, ligands injected (1.0–0.062 nM VEGF-A, 2.5–0.156 nM VEGF-B(10-108), 5.0–0.078 nM PlGF); kd of VEGF-A ligands by the 'fixed kd' procedure on a Biacore 2000 (~2–3 h); KD = kd/ka
[11] = target: human VEGFR2-hFc (human) (UniProt P35968); assay: as above
[12] = target: human VEGFR1-hFc (human) (UniProt P17948); assay: as above

human VEGFR2-hFc (human), sequence (P35968 20-764): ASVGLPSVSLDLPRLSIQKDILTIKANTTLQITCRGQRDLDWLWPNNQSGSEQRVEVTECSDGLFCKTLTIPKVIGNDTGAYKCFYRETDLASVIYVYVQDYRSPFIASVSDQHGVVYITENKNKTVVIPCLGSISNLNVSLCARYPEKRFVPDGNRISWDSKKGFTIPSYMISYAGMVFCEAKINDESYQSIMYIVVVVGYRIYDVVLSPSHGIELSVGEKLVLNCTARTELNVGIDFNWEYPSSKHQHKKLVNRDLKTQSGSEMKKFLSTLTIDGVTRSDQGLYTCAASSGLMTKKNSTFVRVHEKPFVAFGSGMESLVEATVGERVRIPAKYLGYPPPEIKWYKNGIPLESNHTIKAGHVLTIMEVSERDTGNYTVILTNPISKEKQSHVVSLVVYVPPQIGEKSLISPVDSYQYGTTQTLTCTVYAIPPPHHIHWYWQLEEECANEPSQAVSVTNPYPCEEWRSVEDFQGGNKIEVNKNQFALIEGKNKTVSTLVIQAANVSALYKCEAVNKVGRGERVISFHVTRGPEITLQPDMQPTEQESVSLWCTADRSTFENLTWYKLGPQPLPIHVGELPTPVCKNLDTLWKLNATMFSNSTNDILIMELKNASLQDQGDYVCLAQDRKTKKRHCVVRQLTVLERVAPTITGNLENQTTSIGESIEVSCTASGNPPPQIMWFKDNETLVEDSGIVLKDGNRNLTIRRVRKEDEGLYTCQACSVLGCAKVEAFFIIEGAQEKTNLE
human VEGFR1-hFc (human), sequence (P17948 27-758): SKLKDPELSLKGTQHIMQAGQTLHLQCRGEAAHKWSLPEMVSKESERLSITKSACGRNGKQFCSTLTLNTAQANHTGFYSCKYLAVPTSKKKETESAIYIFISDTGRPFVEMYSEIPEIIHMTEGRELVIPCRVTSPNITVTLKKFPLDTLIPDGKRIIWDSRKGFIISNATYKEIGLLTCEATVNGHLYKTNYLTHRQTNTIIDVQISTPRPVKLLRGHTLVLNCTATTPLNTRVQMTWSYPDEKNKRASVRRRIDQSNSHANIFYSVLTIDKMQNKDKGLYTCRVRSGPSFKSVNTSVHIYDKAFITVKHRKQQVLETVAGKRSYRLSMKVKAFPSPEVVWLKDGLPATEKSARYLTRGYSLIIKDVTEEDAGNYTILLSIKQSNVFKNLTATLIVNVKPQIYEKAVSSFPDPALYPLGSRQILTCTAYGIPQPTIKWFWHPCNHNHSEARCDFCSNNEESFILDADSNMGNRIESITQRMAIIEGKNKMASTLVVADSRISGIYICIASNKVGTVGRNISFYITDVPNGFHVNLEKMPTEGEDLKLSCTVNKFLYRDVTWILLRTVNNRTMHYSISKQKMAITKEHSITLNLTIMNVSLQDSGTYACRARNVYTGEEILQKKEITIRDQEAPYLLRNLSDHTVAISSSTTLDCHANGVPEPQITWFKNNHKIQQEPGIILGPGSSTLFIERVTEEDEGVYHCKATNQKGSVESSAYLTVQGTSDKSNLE
VEGF Trap (aflibercept) (Fc fusion), sequence (chain): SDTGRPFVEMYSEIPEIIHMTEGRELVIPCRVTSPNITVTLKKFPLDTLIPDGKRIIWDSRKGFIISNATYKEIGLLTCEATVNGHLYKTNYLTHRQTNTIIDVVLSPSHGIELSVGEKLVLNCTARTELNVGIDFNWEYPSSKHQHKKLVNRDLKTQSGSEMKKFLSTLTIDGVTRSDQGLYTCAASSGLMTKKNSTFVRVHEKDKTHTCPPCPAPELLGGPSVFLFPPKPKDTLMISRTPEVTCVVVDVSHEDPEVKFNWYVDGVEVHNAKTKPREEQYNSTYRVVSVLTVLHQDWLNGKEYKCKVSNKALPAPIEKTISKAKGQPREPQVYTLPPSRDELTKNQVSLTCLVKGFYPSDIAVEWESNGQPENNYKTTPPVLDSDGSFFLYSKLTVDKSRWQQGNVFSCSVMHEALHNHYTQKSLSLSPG

Row | block of HUVEC migration induced by human PlGF-2 (7.1 nM) by a 100-fold excess of VEGF Trap (modified Boyden chamber) [1] [%] | block of HUVEC migration induced by mouse PlGF-2 (3.5 nM) by a 100-fold excess of VEGF Trap (modified Boyden chamber) [2] [%] | reduction of HUVEC migration induced by 130 pM VEGF-A165 (modified Boyden chamber; inhibitor 0.013–13 nM), at a 1:1 molar ratio of VEGF Trap and VEGF-A165 [3] [%] | IC50 of blocking luciferase activity induced by 20 pM hVEGF-A121 in the HEK293/VEGFR1 reporter cell line (blocks VEGF-A121 with VEGFR1) [4] [pM] | IC50 of blocking luciferase activity induced by 40 pM hPlGF-2 in the HEK293/VEGFR1 reporter cell line (blocks hPlGF-2 with VEGFR1) [5] [pM] | IC50 of blocking luciferase activity induced by 20 pM mPlGF-2 in the HEK293/VEGFR1 reporter cell line (blocks mPlGF-2 with VEGFR1) [6] [pM] | IC50 of blocking luciferase activity induced by 20 pM hVEGF-A165 in the HEK293/VEGFR1 reporter cell line (blocks VEGF-A165 with VEGFR1) [7] [pM] | EC50 of luciferase activation in HEK293/VEGFR1 cells (dose response, 0.022 pM to 4.0 nM) [8] [pM] | Kd [9] [pM] | Kd [10] [pM] | koff [10] [s⁻¹] | kon [10] [M⁻¹ s⁻¹] | Kd [11] [pM] | koff [11] [s⁻¹] | kon [11] [M⁻¹ s⁻¹] | Kd [12] [pM] | koff [12] [s⁻¹] | kon [12] [M⁻¹ s⁻¹] | Substance
1 | 80 | 80 | 90 | 15 | 2890 | 104 | 16 |  |  |  |  |  |  |  |  |  |  |  | VEGF Trap (aflibercept) (Fc fusion)
2 |  |  |  |  |  |  |  | 13 | 0.18 | 0.36 | 1.35e-05 | 3.75e+07 |  |  |  |  |  |  | human VEGF-A121 (ligand)
3 |  |  |  |  |  |  |  | 17 | 0.66 | 0.49 | 2.01e-05 | 4.1e+07 | 88.8 | 0.00135 | 1.52e+07 | 9.33 | 0.00028 | 3e+07 | human VEGF-A165 (ligand)
4 |  |  |  |  |  |  |  |  | 17.5 | 1.92 | 6.74e-05 | 3.52e+07 |  |  |  |  |  |  | human VEGF-B(10-108) (domain or fragment)
